Measurements taken from US20240093191A1, “COMPOSITIONS AND METHODS FOR TREATING DISEASE ASSOCIATED WITH DUX4 OVEREXPRESSION” (RESEARCH INSTITUTE AT NATIONWIDE CHILDREN'S HOSPITAL, priority 2021, published 2024).
“And” between values parts separate entries of the source, which are not always exact repeats. Equal values may be shown once.

B1: U6.mir-675-2.2: mir-675 construct with flanks as U6.mir-675-2.1, different promoter (nucleic acid)
DNA: GAACGCTGACGTCATCAACCCGCTCCAAGGAATCGCGGGCCCAGTGTCACTAGGCGGGAACACCCAGCGCGCGTGCGCCCTGGCAGGAAGATGGCTGTGAGGGACAGGGGAGTGGCGCCCTGCAATATTTGCATGTCGCTATGTGTTCTGGGAAATCACCATAAACGTGAAATGTCTTTGGATTTGGGAATCTTATAAGTTCTGTATGAGACCACTTGGATCCCCCAGGGTCTGGTGCGGAGAGGGCCCACAGTGGACTTGGTGACGCTGTATGCCCTCACCGCTCAGCCCCTGGGGTAACTCCTAATCACACTTTTTT
B2: U6.mi405NF: mi405 with one G at 5' end and no 3' flanking sequence (nucleic acid)
DNA: ACGCCGCCATCTCTAGGCCCGCGCCGGCCCCCTCGCACAGACTTGTGGGAGAAGCTCGGCTACTCCCCTGCCCCGGTTAATTTGCATATAATATTTCCTAGTAACTATAGAGGCTTAATGTGCGATAAAAGACAGATAATCTGTTCTTTTTAATACTAGCTACATTTTACATGATAGGCTTGGATTTCTATAAGAGATACAAATACTAAATTATTATTTTAAAAAACAGCACAAAAGGAAACTCACCCTAACTGTAAAGTAATTGTGTGTTTTGAGACTATAAATATCCCTTGGAGAAAAGCCTTGTTTGCTCGAGTGAGCGATCCAGGATTCAGATCTGGTTTCTGTAAAGCCACAGATGGGAAACCAGATCTGAATCCTGGACTGCCTACTAGATTTTTT
B3: mi185F: miDUX4 cloned with mi405F flanking sequences (nucleic acid)
DNA: GCTCGAGTGAGCGAGGTCCAGATTTGGTTTCAGAACTGTAAAGCCACAGATGGGTTCTGAAACCAAATCTGGACCCTGCCTACTAGTAATTCTTCGATTCTGC
modifications: expressed or natural sequence
B4: mi186F: miDUX4 cloned with mi405F flanking sequences (nucleic acid)
DNA: GCTCGAGTGAGCGAGTCCAGATTTGGTTTCAGAATCTGTAAAGCCACAGATGGGATTCTGAAACCAAATCTGGACCTGCCTACTAGTAATTCTTCGATTCTGC
modifications: expressed or natural sequence
B5: mi318F: miDUX4 cloned with mi405F flanking sequences (nucleic acid)
DNA: GCTCGAGTGAGCGAGCCCTGCTCCTCCGAGCCTTTCTGAAAGCCACAGATGGGAAAGGCTCGGAGGAGCAGGGCGTGCCACTAGTAATTCTTCGATTCTGC
modifications: expressed or natural sequence
B6: mi599F: miDUX4 cloned with mi405F flanking sequences (nucleic acid)
DNA: GCTCGAGTGAGCAGAGGCTCTCCCACAGGGGGCTTTCTGAAAGCCACAGATGGGAAAGCCCCCTGTGGGAGAGCCCTGCCTACTAGTAATTCTTCGATTCTGC
modifications: expressed or natural sequence
B7: mi1156F: miDUX4 cloned with mi405F flanking sequences (nucleic acid)
DNA: GCTCGAGTGAGCGAAGGCGCAACCTCTCCTAGAAACTGAAAGCCACAGATGGGTTTCTAGGAGAGGTTGCGCCTGTGCCTACTAGTAATTCTTCGATTCTGC
modifications: expressed or natural sequence
B8: mi1311F: miDUX4 cloned with mi405F flanking sequences (nucleic acid)
DNA: GCTCGAGTGAGCGAGCGGAGAACTGCCATTCTTTCCTGTAAAGCCACAGATGGGGAAAGAATGGCAGTTCTCCGCGTGCCTACTAGTAATTCTTCGATTCTGC
modifications: expressed or natural sequence
B9: U6-mir-675-2.4: mir-675 construct with flanks as U6.mir-675-2.3, different promoter (nucleic acid)
DNA: GAACGCTGACGTCATCAACCCGCTCCAAGGAATCGCGGGCCCAGTGTCACTAGGCGGGAACACCCAGCGCGCGTGCGCCCTGGCAGGAAGATGGCTGTGAGGGACAGGGGAGTGGCGCCCTGCAATATTTGCATGTCGCTATGTGTTCTGGGAAATCACCATAAACGTGAAATGTCTTTGGATTTGGGAATCTTATAAGTTCTGTATGAGACCACTTGGATCCAATCACACTGCCCCAGGGTCTGGTGCGGAGAGGGCCCACAGTGGACTTGGTGACGCTGTATGCCCTCACCGCTCAGCCCCTGGGGATACTCCTAATCACACTTTTTT
B10: U6-mir-675-2.6: mir-675 construct with modified 5' and 3' flanking sequences (nucleic acid)
DNA: TCTAGAGATCCGACGCCGCCATCTCTAGGCCCGCGCCGGCCCCCTCGCACAGACTTGTGGGAGAAGCTCGGCTACTCCCCTGCCCCGGTTAATTTGCATATAATATTTCCTAGTAACTATAGAGGCTTAATGTGCGATAAAAGACAGATAATCTGTTCTTTTTAATACTAGCTACATTTTACATGATAGGCTTGGATTTCTATAAGAGATACAAATACTAAATTATTATTTTAAAAAACAGCACAAAAGGAAACTCACCCTAACTGTAAAGTAATTGTGTGTTTTGAGACTATAAATATCCCTTGGAGAAAAGCCTTGTTAACGCGCCCCAGGGTCTGGTGCGGAGAGGGCCCACAGTGGACTTGGTGACGCTGTATGCCCTCACCGCTCAGCCCCTGGGGTAACTCCTAATCACACTTTTTT
B11: U6-milacZ: negative control miRNA expression plasmid (nucleic acid)
DNA: ACGCCGCCATCTCTAGGCCCGCGCCGGCCCCCTCGCACAGACTTGTGGGAGAAGCTCGGCTACTCCCCTGCCCCGGTTAATTTGCATATAATATTTCCTAGTAACTATAGAGGCTTAATGTGCGATAAAAGACAGATAATCTGTTCTTTTTAATACTAGCTACATTTTACATGATAGGCTTGGATTTCTATAAGAGATACAAATACTAAATTATTATTTTAAAAAACAGCACAAAAGGAAACTCACCCTAACTGTAAAGTAATTGTGTGTTTTGAGACTATAAATATCCCTTGGAGAAAAGCCTTGTTTGCGTTTAGTGAACCGTCAGATGGTACCGTTTAAACTCGAGTGAGCGACATGTTGCCACTCGCTTTAATCTGTAAAGCCACAGATGGGATTAAAGCGAGTGGCAACATGGCGCCTACTAGAGCGGCCGCCACAGCGGGGAGATCCAGACATGATAAGATACATTTTTT

Tests used:
Format in all cases: cell-based, human
DUX4 protein = assay: Western blot of V5-tagged DUX4 protein in co-transfected HEK293 cells; settings: HEK293; for Average inhibition efficiency (%) of DUX4 protein levels: CMV.DUX4-FL/CMV.eGFP, molar ratio 1 to 3, eGFP normalizer, relative to U6-milacZ, N = 3-8
Description: Western Blots. […] 50 mM Tris (pH 7.5-8.0), 150 mM NaCl, 0.1% (v/v) SDS, 0.5% (v/v) deoxycholate, 1% (v/v) triton X-100 (Fisher Scientific) and 1 tablet of protease inhibitor (ThermoFisher Scientific) per 10 mL of buffer. The total protein extract was quantified using the DC Protein Assay (Bio-Rad). Twenty microgram samples were separated on 12% SDS-PAGE, transferred to nitrocellulose membrane, using the wet transfer system, and incubated with the following antibodies: mouse monoclonal antibody to V5 (horseradish peroxidase [HRP]-coupled) [1:5,000 in 5% milk TBST buffer (150 mM NaCl, 50 mM Tris-HCl pH 7.4 and 0.1% Tween 20 (Fisher Scientific)), R961-25; Invitrogen); rabbit polyclonal eGFP antibody (1:50,000 in 3% BSA PBS, ab290; Abcam); mouse monoclonal β-actin antibodies (1:60,000; Sigma, St Louis, MO); overnight at 4° C. When using the eGFP antibody, membranes were blocked 30 mins with 3% BSA PBS prior to blotting. eGFP-probed blots were washed five times, 5 min each with 0.5% Tween 20 (Fisher Scientific) in TBST buffer, and then incubated with HRP-coupled goat anti-rabbit secondary antibody (1:250,000 in 3% BSA PBS, 115-035-144; Jackson ImmunoResearch) for 2 hours at room temperature. V5-probed blots were washed five times, 5 min each with 0.1% Tween 20 in TBST buffer. Following washes, blots were developed using Immobilon Western HRP substrate (Millipore) and exposed to film. DUX4.V5, and eGFP quantification was assessed using ImageJ.

mir-675-5p = assay: Small-transcript northern blot of mir-675 processing in HEK293 cells; settings: HEK293; anti-mir-675-5p biotinylated probe
Source text: Small-Transcript Northern Blots. […] (SEQ ID NO: 148)).

[1] = system: DUX4 ORF (RenLuc-DUX4 ORF); assay: Dual-luciferase assay, RenLuc-DUX4 ORF reporter co-transfected with miDUX4 plasmids in HEK293 cells; design: increase in relative Renilla luciferase activity compared to original miDUX4 counterpart: concentration or dose not given beside the values; settings: for increase in relative Renilla luciferase activity compared to original miDUX4 counterpart: miDUX4 with mi405F flanking sequences
Description: Dual Luciferase Assay. (See also FIGS. 1A, 3A-B, 4A-B, 5B, and 16B-C.) This assay was performed as previously described by Wallace et al. (Mol. Ther. Methods Clin. Dev. 8: 121-30 (2018)) and following the dual-luciferase reporter assay system (Promega) protocol with some modifications. All plasmid constructs had the psiCheck2 dual luciferase reporter plasmid (Promega) as backbone that contains separate Renilla and Firefly luciferase genes, where the former contains the various target sequences used in the experiments of the disclosure, and the latter serves as a transfection normalizer (control). All DUX4 and control sequences were cloned downstream of the Renilla luciferase stop codon, serving as a 3′UTR. HEK293 cells were pre-plated 24h before transfection. Cells were then co-transfected with the luciferase DUX4 reporter and individual microRNA expression plasmids in an increasing luciferase DUX4 reporter:miRNA molar ratio using Lipofectamine 2000 (Invitrogen). Luciferase activity was measured 24h or 48h after transfection. DUX4 gene silencing was determined as previously described [Wallace et al., Mol. Ther. Methods Clin. Dev. 8: 121-30 (2018)]. Triplicate data were averaged per experiment, and individual experiments were performed 3 times. Results were reported as the average ratio of Renilla to Firefly luciferase activity±SEM for all combined experiments.
Accordingly, two new mi405 constructs, i.e., mi405F and mi405NF, were designed. […] To assess the inhibition efficiency of the three mi405 constructs, a dual-luciferase assay and western blot analysis, similar to what was described for mir-675, were carried out. In the dual-luciferase assay, U6.mi405, U6.mi405F, or U6.mi405NF was co-transfected into HEK293 cells along with the RenLuc-DUX4 ORF (a construct expressing the open reading frame of DUX4 as a 3′UTR sequence of Renilla Luciferase). 24 h after transfection, U6.mi405, U6.mi405F, and U6.mi405NF reduced the relative Renilla luciferase activity by 85±1%, 89±1%, and 66±1% (P<0.0001, ANOVA, N=3), respectively, when tested against the RenLuc-DUX4 ORF construct.

Row | Molecule | Average inhibition efficiency (%) of DUX4 protein levels (DUX4 protein) | increase in relative Renilla luciferase activity compared to original miDUX4 counterpart ([1]; normalized to miGFP) | also measured
1 | B1 | 58 ± 6 (N = 5) % |  | mature mir-675-5p bands on northern blot (mir-675-5p): detectable mir-675 mature sequences
2 | B2 |  |  | reduction of relative Renilla luciferase activity ([1]; 1:4 DUX4:mi405 molar ratio, HEK293, 24 h, normalized to miGFP): 66±1%; reduction of Renilla luciferase activity ([1]; DUX4:mi405 molar ratio 2 to 1, HEK293, 24 h, normalized to U6.miGFP): 4±2% and 3.6±1.8%; relative Renilla luciferase activity reached ([1]; DUX4:miDUX4 molar ratio 1:1): 88±3%; increase in relative Renilla luciferase activity ([1]; switching from molar ratio 1:2 to 1:1 DUX4:miDUX4): 73±7%; reduction of DUX4 protein levels (DUX4 protein; 1:4 DUX4:mi405 molar ratio, 24 h, normalized to miGFP, N=2): 70±13%
3 | B3 |  | 160±8% | 
4 | B4 |  | 27±9% | 
5 | B5 |  | 44±15% | 
6 | B6 |  | 24±9% | 
7 | B7 |  | 34±8% | 
8 | B8 |  | 27±9% | 
9 | B9 | 63 ± 7 (N = 5) % |  | 
10 | B10 | 63 ± 2 (N = 5) % |  | 
11 | B11 | 0 ± 2 (N = 8) % |  | 
